T1: p53_Gg (Gallus gallus (Chicken), UniProt P10360)
T1 chain: EPTEVFMDLWSML

T2: p73_Dr (zebrafish, UniProt A0A8M2BER5)
T2 chain: EGPTFEHLWSTL

T3: p53_Dr (Danio rerio (Zebrafish) (Brachydanio …, UniProt P79734))
T3 chain: DSQEFAELWEKNL

T4: p63_Dr (zebrafish, UniProt E9QG65)
T4 chain: GQDVLNQLLEML

B1: MDM2_Gg (protein)
chain: SPVSASEQEALVKPKPLLLKLLKLAGAEKDTFTMKEVIFYLGQYIMSKQLYDEKEQHIVHCANDLLGDLFGVTSFSVKEHRRIYSMISRNLIAIN
B2: MDM2_Dr (protein)
chain: SQISKVDNEKLVRPKVQLKSLLEDAGADKDVFTMKEVMFYLGKYIMSKELYDKQQQHIVHCGEDPLGAVLGVKSFSVKEPRALFALINRNLVTVK

What was measured:
Assay in all cases: stopped flow koff/kon 10 C
p53_Gg = target: T1, p53_Gg
p73_Dr = target: T2, p73_Dr
p53_Dr = target: T3, p53_Dr
p63_Dr = target: T4, p63_Dr

Binder	Kd (p53_Gg)	Kd (p73_Dr)	Kd (p53_Dr)	Kd (p63_Dr)
B1	90 nM	–	–	–
B2	–	120 nM	1900 nM	130000 nM
